Like-named read-outs stand apart in the source and are kept apart here.
T1: human claudin 6 (CLDN6) (human, UniProt P56747 1-220)
T1 construct: also called human CLDN6; hCLDN6
T1 sequence: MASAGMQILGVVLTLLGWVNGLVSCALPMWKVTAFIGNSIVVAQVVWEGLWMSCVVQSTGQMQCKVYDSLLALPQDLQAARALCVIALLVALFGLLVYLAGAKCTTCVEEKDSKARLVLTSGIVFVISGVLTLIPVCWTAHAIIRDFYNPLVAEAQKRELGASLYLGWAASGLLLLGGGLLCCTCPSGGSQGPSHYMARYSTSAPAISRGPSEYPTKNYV

T2: human claudin 9 (CLDN9) (human, UniProt O95484 1-217)
T2 construct: also called human CLDN9
T2 sequence: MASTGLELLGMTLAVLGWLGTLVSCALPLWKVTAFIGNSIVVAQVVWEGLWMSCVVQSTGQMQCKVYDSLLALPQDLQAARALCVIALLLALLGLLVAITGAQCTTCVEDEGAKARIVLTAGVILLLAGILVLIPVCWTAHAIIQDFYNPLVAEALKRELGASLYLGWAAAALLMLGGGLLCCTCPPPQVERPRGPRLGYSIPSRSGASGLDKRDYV

T3: mouse CLDN6 (mouse, UniProt Q9Z262 1-219)
T3 construct: whole, on cells
T3 sequence (looked up): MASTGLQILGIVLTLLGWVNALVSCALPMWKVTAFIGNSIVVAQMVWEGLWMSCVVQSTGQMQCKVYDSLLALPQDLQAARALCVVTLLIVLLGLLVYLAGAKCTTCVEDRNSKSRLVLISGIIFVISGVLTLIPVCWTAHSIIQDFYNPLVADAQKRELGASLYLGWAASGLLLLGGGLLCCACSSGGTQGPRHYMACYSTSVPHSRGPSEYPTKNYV


Experiments:
human claudin 6 (CLDN6) [1] = target: T1, human claudin 6 (CLDN6); assay: flow cytometry on HEK293T/human CLDN6 cells, goat anti-human IgG secondary, MFI(PE)
Description: (§1) For affinity determination, CLDN6 over-expressing HEK293T cells and cancer cell line PA-1 which express high levels of human CLDN6 were used to evaluate the binding activity of BG87P related engineering variants. Live cells were seeded in 96-well plate, and were incubated with a series of dilutions of chBG87P and engineered variants thereof. Goat anti-human IgG was used as second antibody to detect antibody binding to the cell surface. EC50 values for dose-dependent binding to CLDN6 expressing cell lines were determined by fitting the dose-response data to the four-parameter logistic model with GraphPad Prism. Cell binding activity of 1st round of BG87P humanization variants against HEK293T/human CLDN6 were compared to chBG87P and shown in FIG. 1A.

cyno CLDN6 [2] = target: T4, cyno CLDN6 (cyno); assay: flow cytometry on CHOK1/cyno CLDN6 cells, MFI(PE)
T4 construct: whole, on cells; also called cynomolgus CLDN6

human claudin 6 (CLDN6) [3] = target: T1, human claudin 6 (CLDN6); assay: FACS, HEK293-hCLDN6 cells
cyno CLDN6 [4] = target: T4, cyno CLDN6; assay: FACS, HEK293T-cyno-CLDN6 cells
cyno CLDN6 [5] = target: T4, cyno CLDN6; assay: FACS, HEK293T_cyno-CLDN6 cells
human claudin 9 (CLDN9) = target: T2, human claudin 9 (CLDN9); assay: flow cytometry on HEK293T/human CLDN9 cells, MFI(PE)
human claudin 6 (CLDN6) [6] = target: T1, human claudin 6 (CLDN6); assay: FACS, PA-1 cells (endogenous CLDN6)
Description: as §1

human claudin 6 (CLDN6) [7] = target: T1, human claudin 6 (CLDN6); assay: FACS, HEK293T/human CLDN6 cells
Description: as §1
Beginning with the chBG87P antibody and BG87P-Bz0, several additional amino acid changes in the CDR regions of both VH and VL were made to further improve the biophysical properties for therapeutics use in human. The considerations included removing post translational modifications (PTM), improved heat stability (Tm), while maintaining binding activities, the resulted variants are BG87P-m1 (VH SEQ ID NO: 31 and VL SEQ ID NO: 8), BG87P-m2 (VH SEQ ID NO: 32 and VL SEQ ID NO: 8), BG87P-m3 (VH SEQ ID NO: 33 and VL SEQ ID NO: 8), and BG87P-m4 (VH SEQ ID NO: 34 and VL SEQ ID NO: 8) and BG87P-m5 (VH SEQ ID NO: 35 and VL SEQ ID NO: 14), BG87P-m6 (VH SEQ ID NO: 36 and VL SEQ ID NO 14), BG87P-m7 (VH SEQ ID NO: 37 and VL SEQ ID NO: 14), and BG87P-m8 (VH SEQ ID NO: 38 and VL SEQ ID NO: 14). Cell binding activity of chBG87P and BG87P-Bz0 related PTM removal variants against HEK293T/human CLDN6 was compared with chBG87P and BG87-Bz0, respectively ([…]). Cell binding affinity (EC50) and Emax (MFI) was normalized to chBG87P for directly comparison and ranking (Table 7).

human claudin 6 (CLDN6) [8] = target: T1, human claudin 6 (CLDN6); assay: FACS, HEK293T-hCLDN6 cells
mouse CLDN6 = target: T3, mouse CLDN6; assay: flow cytometry on CHOK1/mouse CLDN6 cells, MFI(PE)
[9] = target: T5, human native CD3 on live cells (HuT78, Jurkat) (human, UniProt P07766 23-207; P09693 23-182; P04234 22-171); assay: flow cytometry on live HuT78 cells, mouse anti-human IgG secondary, MFI
T5 construct: whole, on cells; also called human CD3
Description: (§2) For affinity determination, antibodies were captured by anti-human Fc surface, and used in the affinity-assay based on surface plasmon resonance (SPR) technology. The binding activity of humanized sp34 to bind native CD3 on live cells was evaluated using HuT78 cells in a FACS based assay. Live HuT78 cells were seeded in 96-well plate, and were incubated with a series of dilutions of chimeric or humanized sp34. Mouse anti-Human IgG was used as second antibody to detect antibody binding to the cell surface. EC50 values for dose-dependent binding to human native CD3 were determined by fitting the dose-response data to the four-parameter logistic model with GraphPad Prism.

CD3ε (SPR analyte) [10] = target: T6, CD3ε (SPR analyte) (UniProt P07766 23-126, limits assumed); assay: SPR, scFv-Fc
[11] = target: T5, human native CD3 on live cells (HuT78, …); assay: FACS, HuT78 cells, Test 1
Description: as §2

[12] = target: T5, human native CD3 on live cells (HuT78, …); assay: flow cytometry on live HuT78 cells, mouse anti-human IgG secondary, MFI; remark: listed apart in the source
Description: as §2

[13] = target: T5, human native CD3 on live cells (HuT78, …); assay: FACS, HuT78 cells, Test 2
Description: as §2

[14] = target: T5, human native CD3 on live cells (HuT78, …); assay: FACS, HuT78 cells
Description: as §2

CD3ε (SPR analyte) [15] = target: T6, CD3ε (SPR analyte); assay: SPR
[16] = target: T5, human native CD3 on live cells (HuT78, …); assay: FACS, HuT78 cells, Test 3
Description: as §2

[17] = target: T5, human native CD3 on live cells (HuT78, …); assay: flow cytometry on live HuT78 cells, mouse anti-human IgG secondary, MFI; remark: listed apart in the source
Description: as §2

T5 sequence (P07766 23-207, chain 1 of 3): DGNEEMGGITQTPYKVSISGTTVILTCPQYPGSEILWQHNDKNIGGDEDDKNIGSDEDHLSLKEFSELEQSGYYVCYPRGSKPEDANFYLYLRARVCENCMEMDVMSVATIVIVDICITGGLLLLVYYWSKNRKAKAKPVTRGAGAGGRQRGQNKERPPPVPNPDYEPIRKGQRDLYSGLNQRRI
T5 sequence (P09693 23-182, chain 2 of 3): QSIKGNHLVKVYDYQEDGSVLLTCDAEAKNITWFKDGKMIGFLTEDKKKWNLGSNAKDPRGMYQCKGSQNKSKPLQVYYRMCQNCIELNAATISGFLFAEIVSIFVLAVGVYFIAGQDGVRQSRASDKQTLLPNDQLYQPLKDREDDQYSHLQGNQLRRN
T5 sequence (P04234 22-171, chain 3 of 3): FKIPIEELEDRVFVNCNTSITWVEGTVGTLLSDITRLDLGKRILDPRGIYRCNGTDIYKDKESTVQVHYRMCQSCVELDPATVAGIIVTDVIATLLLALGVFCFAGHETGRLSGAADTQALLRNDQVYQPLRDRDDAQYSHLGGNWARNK
T6 sequence (P07766 23-126 limits assumed): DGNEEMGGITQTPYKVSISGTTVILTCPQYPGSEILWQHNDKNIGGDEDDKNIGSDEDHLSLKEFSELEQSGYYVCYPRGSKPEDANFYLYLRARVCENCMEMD

Row | Binder | EC50 (read off the curve) (human claudin 6 (CLDN6) [1]) | EC50 (read off the curve) (cyno CLDN6 [2]) | FACS-Ec50 ratio to BG87P (human claudin 6 (CLDN6) [3]) | FACS Emax ratio to BG87P (cyno CLDN6 [4]) | EC50 (cyno CLDN6 [5]) | binding result (human claudin 9 (CLDN9)) | FACS Emax ratio to BG87P (human claudin 6 (CLDN6) [8]) | EC50 (read off the curve) [9] | Kd (CD3ε (SPR analyte) [10]) | koff (CD3ε (SPR analyte) [10]) | kon (CD3ε (SPR analyte) [10]) | EC50 [11] | EC50 (read off the curve) [12] | EC50 [13] | EC50 [16] | EC50 (read off the curve) [17] | further results
1 | chimeric BG87P antibody (chBG87P) (antibody, V domains shown) VH: QIQLQQSGPELVKPGASVKISCKASGYSFTDYHINWVKQRPGQGLEWIGWIYPGSGYTKYNEKFKVKATLTVDTSSSTAYMHLTSLTSEDSAVYFCARSGIYHYVSSYYFDHWGQGTTLTVSS VL: DIVMTQSHTFMSTSVGDRVSITCKASQDVGTAVAWYQQKPGQSPKLLIYWASTRHTGVPDRFTGSGSGTDFTLTISNVQSEDLADYFCQQYSSYTFGGGTKLEIK | ~10 nM | ~7 nM | 1 ratio | 1 ratio | 7.2 nM | no binding (tested: about 250 nM (log 2.4)) | 1 ratio |  |  |  |  |  |  |  |  |  | EC50 (human claudin 6 (CLDN6) [6]): 8.33 nM; Emax ratio to BG87P (human claudin 6 (CLDN6) [6]): 1 ratio; Top MFI Mean (human claudin 6 (CLDN6) [6]): 125000 MFI; EC50 (human claudin 6 (CLDN6) [7]): 2.72 nM; Emax ratio to BG87P (human claudin 6 (CLDN6) [7]): 1 ratio; Top MFI Mean (human claudin 6 (CLDN6) [7]): 192000 MFI
2 | BG87P-34 (antibody, V domains shown, Framework-swapped final lead (IGHV3-23 / IGKV1-39); also called BG87-34) VH: EVQLQESGGGLVQPGGSLRLSCAASGYSFSDYHINWVRQAPGKGLEWVGYIYPGSGHTKYNEKFKGRFTISRDTSSNTAYLQMNSLRAEDTAVYYCARSGIYHYVSSYYFDHWGQGTLVTVSS VL: DIQMTQSPSSLSASVGDRVTITCKASQDAGSAVAWYQQKPGKAPKLLIYWASTRHTGVPSRFSGSGSGTDFTLTISSLQPEDFATYYCQQYSSYTFGGGTKLEIK | ~10 nM | ~9 nM | 1.17 ratio | 1 ratio | 8.8 nM | no binding (tested: about 250 nM (log 2.4)) | 1.03 ratio |  |  |  |  |  |  |  |  |  | binding result (mouse CLDN6): binds
3 | humanized scFv BG562P (scFv-Fc) (Fc fusion, BG561P with L4V in VL; not shown: human IgG1 Fc region, scFv fused to its N-terminus) scFv: EVQLVESGGGLVQPGGSLRLSCAASGFTFNTYAMNWVRQAPGKGLEWVARIRSKYNNYATYYADSVKDRFTISRDDAKNSLYLQMNSLRAEDTAVYYCVRHGNFGNSYVSWFAYWGQGTLVTVSSGGGGSGGGGSGGGGSEIVVTQSPATLSVSPGERATLSCRSSTGAVTTSNYANWVQQKPGQAPRGLIGGTNKRAPGIPARFSGSLSGDEATLTISSLQSEDFAVYYCALWYSNLWVFGGGTKVEIK |  |  |  |  |  |  |  | ~0.1 µg/mL | 3.16 nM | 0.000367 s⁻¹ | 116000 M⁻¹ s⁻¹ | 2.85 nM | ~0.3 µg/mL | 2.85 nM |  |  | 
4 | humanized sp34 scFv BG561P (scFv-Fc) (Fc fusion, scFv (VH-3xG4S-VK) fused to N-terminus of a human IgG1 Fc region; also called scFv-ized BG56P; not shown: human IgG1 Fc region, scFv fused to its N-terminus) scFv: EVQLVESGGGLVQPGGSLRLSCAASGFTFNTYAMNWVRQAPGKGLEWVARIRSKYNNYATYYADSVKDRFTISRDDAKNSLYLQMNSLRAEDTAVYYCVRHGNFGNSYVSWFAYWGQGTLVTVSSGGGGSGGGGSGGGGSEIVLTQSPATLSVSPGERATLSCRSSTGAVTTSNYANWVQQKPGQAPRGLIGGTNKRAPGIPARFSGSLSGDEATLTISSLQSEDFAVYYCALWYSNLWVFGGGTKVEIK |  |  |  |  |  |  |  | ~0.3 µg/mL | 4.98 nM | 0.00036 s⁻¹ | 72200 M⁻¹ s⁻¹ | 2.46 nM | ~0.5 µg/mL |  |  |  | EC50 [14]: 4.35 nM; Kd (CD3ε (SPR analyte) [15]): 9.08 nM; koff (CD3ε (SPR analyte) [15]): 0.000401 s⁻¹; kon (CD3ε (SPR analyte) [15]): 44200 M⁻¹ s⁻¹
5 | humanized scFv BG564P (scFv-Fc) (Fc fusion, BG563P with N30S and N100S in VH; not shown: human IgG1 Fc region, scFv fused to its N-terminus) scFv: EVQLVESGGGLVQPGGSLRLSCAASGFTFSTYAMNWVRQAPGKGLEWVGRIRSKYNNYATYYADSVKGRFTISRDDAKNSLYLQMNSLRAEDTAVYYCVRHGNFGSSYVSWFAYWGQGTLVTVSSGGGGSGGGGSGGGGSEIVVTQSPATLSVSPGERATLSCRSSTGAVTTSNYANWVQQKPGQAPRGLIGGTNKRAPGIPARFSGSLSGDEATLTISSLQSEDFAVYYCALWYSNLWVFGGGTKVEIK |  |  |  |  |  |  |  |  | 1.39 nM | 0.000576 s⁻¹ | 414000 M⁻¹ s⁻¹ |  |  |  | 1.23 nM | ~0.1 µg/mL | 
6 | humanized scFv BG563P (scFv-Fc) (Fc fusion, BG561P with L4V in VL and A49G, D65G in VH; not shown: human IgG1 Fc region, scFv fused to its N-terminus) scFv: EVQLVESGGGLVQPGGSLRLSCAASGFTFNTYAMNWVRQAPGKGLEWVGRIRSKYNNYATYYADSVKGRFTISRDDAKNSLYLQMNSLRAEDTAVYYCVRHGNFGNSYVSWFAYWGQGTLVTVSSGGGGSGGGGSGGGGSEIVVTQSPATLSVSPGERATLSCRSSTGAVTTSNYANWVQQKPGQAPRGLIGGTNKRAPGIPARFSGSLSGDEATLTISSLQSEDFAVYYCALWYSNLWVFGGGTKVEIK |  |  |  |  |  |  |  |  | 1.57 nM | 0.000772 s⁻¹ | 493000 M⁻¹ s⁻¹ |  | ~0.1 µg/mL | 0.94 nM | 0.94 nM | ~0.1 µg/mL | 

Reference: patent publication US20240301062A1 (BEIGENE SWITZERLAND, published 2024)
